From paper PMC6831305, “Secreted protein acidic and rich in cysteine mediates active targeting of human serum albumin in U87MG xenograft mouse models” (Theranostics, 2019)

Columns and labels:
[1] = molecular target: T1, FNR648-labeled human serum albumin (human, UniProt P02768 25-609, FNR648 fluorescence dye conjugated (site not stated)); assay: co-IP; SPARC and FNR648-HSA incubated 2 h at 4 °C after pre-clearing (normal rabbit serum, protein A/G PLUS-Agarose); precipitated with rabbit anti-SPARC antibody and protein A/G PLUS-Agarose; 8% SDS-PAGE, FNR648 fluorescence in the gel read by IVIS; conditions: both partners purified
T1 construct: human serum albumin (HSA), human; The pre-clearing step of the IP names plain 'HSA'; the detected species is FNR648-HSA; also called FNR648-HSA; HSA

[2] = molecular target: T1, FNR648-labeled human serum albumin; assay: FRET or BRET; Cy3-SPARC (donor) and FNR648-HSA (acceptor) added to U87MG cells; confocal imaging, excitation 514 nm, emission 540-600 nm (Cy3-SPARC) and 640-750 nm (FNR648-HSA); line ROI analysis; conditions: both partners purified

T1 sequence (P02768 25-609): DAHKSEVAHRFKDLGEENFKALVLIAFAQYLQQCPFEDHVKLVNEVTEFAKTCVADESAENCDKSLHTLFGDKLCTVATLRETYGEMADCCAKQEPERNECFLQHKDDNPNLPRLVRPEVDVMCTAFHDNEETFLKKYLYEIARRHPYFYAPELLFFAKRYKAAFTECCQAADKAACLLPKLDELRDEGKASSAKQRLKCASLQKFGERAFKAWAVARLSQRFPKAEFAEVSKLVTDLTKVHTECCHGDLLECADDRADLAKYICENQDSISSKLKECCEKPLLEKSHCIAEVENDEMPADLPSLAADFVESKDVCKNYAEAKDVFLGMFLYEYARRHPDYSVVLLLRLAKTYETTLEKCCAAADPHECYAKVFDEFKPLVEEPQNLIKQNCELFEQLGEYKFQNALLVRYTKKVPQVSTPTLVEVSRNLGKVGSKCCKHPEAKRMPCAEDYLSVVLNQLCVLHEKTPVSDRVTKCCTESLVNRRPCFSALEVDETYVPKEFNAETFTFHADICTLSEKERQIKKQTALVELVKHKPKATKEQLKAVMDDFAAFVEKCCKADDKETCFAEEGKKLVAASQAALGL

binding result [1] | binding result [2] | Binder
binds |  | recombinant human SPARC (secreted protein acidic and rich in cysteine) (natural protein, UniProt P09486 18-303, looked up, secreted protein acidic and rich in cysteine (SPARC), human, recombinant, cell-derived; also called exogenous SPARC; source: bought: R&D system (cell-derived, 941-SP)) APQQEALPDETEVVEETVAEVTEVSVGANPVQVEVGEFDDGAEETEEEVVAENPCQNHHCKHGKVCELDENNTPMCVCQDPTSCPAPIGEFEKVCSNDNKTFDSSCHFFATKCTLEGTKKGHKLHLDYIGPCKYIPPCLDSELTEFPLRMRDWLKNVLVTLYERDEDNNLLTEKQKLRVKKIHENEKRLEAGDHPVELLARDFEKNYNMYIFPVHWQFGQLDQHPIDGYLSHTELAPLRAPLIPMEHCTTRFFETCDLDNDKYIALDEWAGCFGIKQKDIDKDLVI
 | binds | Cy3-labeled recombinant human SPARC (natural protein, UniProt P09486 18-303, looked up, ADIBO-NHS conjugated, then Cy3-azide by click reaction (sites not given), secreted protein acidic and rich in cysteine (SPARC), human, recombinant, cell-derived; Same bought protein as m2, with the Cy3 label; also called Cy3-SPARC; fluorescence-labeled SPARC; source: bought: R&D system (cell-derived, 941-SP), then labelled via ADIBO-NHS and Cy3-azide click reaction) APQQEALPDETEVVEETVAEVTEVSVGANPVQVEVGEFDDGAEETEEEVVAENPCQNHHCKHGKVCELDENNTPMCVCQDPTSCPAPIGEFEKVCSNDNKTFDSSCHFFATKCTLEGTKKGHKLHLDYIGPCKYIPPCLDSELTEFPLRMRDWLKNVLVTLYERDEDNNLLTEKQKLRVKKIHENEKRLEAGDHPVELLARDFEKNYNMYIFPVHWQFGQLDQHPIDGYLSHTELAPLRAPLIPMEHCTTRFFETCDLDNDKYIALDEWAGCFGIKQKDIDKDLVI
